Reference: article PMC2794717

Biological target: yeast SCF^Cdc4 ubiquitin ligase (yeast) (UniProt P52286)
UniProt P52286, sequence (P52286 whole entry, chain 1 of 4): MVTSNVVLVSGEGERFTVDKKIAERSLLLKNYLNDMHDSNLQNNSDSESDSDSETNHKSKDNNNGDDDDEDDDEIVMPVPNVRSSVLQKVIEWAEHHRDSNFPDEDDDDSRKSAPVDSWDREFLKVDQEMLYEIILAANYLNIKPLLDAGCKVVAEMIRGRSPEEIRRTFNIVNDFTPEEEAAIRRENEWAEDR
UniProt P52286, sequence (Q12018 whole entry, chain 2 of 4, further chain): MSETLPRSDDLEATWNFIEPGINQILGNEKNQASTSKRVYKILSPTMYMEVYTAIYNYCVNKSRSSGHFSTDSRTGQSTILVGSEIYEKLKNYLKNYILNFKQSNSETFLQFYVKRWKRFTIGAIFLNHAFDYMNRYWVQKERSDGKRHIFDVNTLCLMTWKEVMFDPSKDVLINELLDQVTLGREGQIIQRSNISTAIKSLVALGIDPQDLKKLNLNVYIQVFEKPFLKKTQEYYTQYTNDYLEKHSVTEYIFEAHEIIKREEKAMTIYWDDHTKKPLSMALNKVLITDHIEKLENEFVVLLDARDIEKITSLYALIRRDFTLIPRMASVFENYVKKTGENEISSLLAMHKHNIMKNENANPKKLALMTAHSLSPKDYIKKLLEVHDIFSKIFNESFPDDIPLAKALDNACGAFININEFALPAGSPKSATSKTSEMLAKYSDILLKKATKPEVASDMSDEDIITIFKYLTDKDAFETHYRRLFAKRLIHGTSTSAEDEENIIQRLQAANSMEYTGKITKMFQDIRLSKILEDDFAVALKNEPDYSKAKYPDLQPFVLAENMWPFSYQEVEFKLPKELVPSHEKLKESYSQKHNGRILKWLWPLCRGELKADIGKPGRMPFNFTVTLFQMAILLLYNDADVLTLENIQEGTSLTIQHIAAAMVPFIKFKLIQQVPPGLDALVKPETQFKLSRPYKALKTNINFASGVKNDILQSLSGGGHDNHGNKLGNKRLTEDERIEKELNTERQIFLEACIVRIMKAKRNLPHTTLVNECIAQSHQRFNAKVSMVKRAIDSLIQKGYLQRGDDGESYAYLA
UniProt P52286, sequence (P07834 whole entry, chain 3 of 4, further chain): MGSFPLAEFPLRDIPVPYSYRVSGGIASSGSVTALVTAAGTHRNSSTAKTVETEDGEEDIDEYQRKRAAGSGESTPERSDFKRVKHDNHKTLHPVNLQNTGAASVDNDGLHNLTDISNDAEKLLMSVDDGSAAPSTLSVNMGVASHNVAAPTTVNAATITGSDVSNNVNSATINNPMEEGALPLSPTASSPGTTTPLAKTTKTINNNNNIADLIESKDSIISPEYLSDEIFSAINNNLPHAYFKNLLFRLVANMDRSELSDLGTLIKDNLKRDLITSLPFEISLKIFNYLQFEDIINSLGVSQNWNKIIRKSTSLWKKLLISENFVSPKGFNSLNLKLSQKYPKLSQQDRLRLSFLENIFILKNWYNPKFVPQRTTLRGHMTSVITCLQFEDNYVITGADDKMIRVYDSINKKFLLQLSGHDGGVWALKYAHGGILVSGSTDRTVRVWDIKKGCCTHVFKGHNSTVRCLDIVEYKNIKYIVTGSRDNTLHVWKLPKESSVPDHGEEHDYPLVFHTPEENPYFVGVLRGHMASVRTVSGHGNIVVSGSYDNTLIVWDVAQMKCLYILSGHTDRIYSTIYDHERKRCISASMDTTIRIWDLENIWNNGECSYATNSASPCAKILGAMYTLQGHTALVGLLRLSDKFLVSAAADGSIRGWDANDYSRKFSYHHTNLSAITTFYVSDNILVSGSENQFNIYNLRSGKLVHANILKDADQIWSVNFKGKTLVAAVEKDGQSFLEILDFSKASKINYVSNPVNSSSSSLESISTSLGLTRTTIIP
UniProt P52286, sequence (Q08273 whole entry, chain 4 of 4, further chain): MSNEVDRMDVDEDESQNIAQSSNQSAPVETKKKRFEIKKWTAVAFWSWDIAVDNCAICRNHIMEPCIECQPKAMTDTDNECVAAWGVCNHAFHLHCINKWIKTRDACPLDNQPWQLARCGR

B1: yeast Cdc34-Δ220 (domain or fragment)
chain: MSSRKSTASSLLLRQYRELTDPKKAIPSFHIELEDDSNIFTWNIGVMVLNEDSIYHGGFFKAQMRFPEDFPFSPPQFRFTPAIYHPNVYRDGRLCISILHQSGDPMTDEPDAETWSPVQTVESVLISIVSLLEDPNINSPANVDAAVDYRKNPEQYKQRVKMEVERSKQDIPKGFIMPTSESAYISQSKLDEPESNKDMADNFWYDSDLDDDENGSVILQ
fold increase in Km in Sic1 ubiquitylation reactions, against Cdc34-Δ230: 3 fold
